B1: 抗CD3单域抗体 C57 (VHH)
VHH: QVQLQESGGGLVQAGDSLRLSCAASGRTFSSYVMGWFRQAPGKEREFVAAIRWSGGSTYYADSVKGRFTISRDNAKNTMYLQMNSLKPEDTAVYYCAAAQKINTDVTGAYWGQGTQVTVSS
notes: Llama sdAb from a phage library; Tested as unpurified sdAb-SASA protein in E. coli expression medium / culture supernatant (FASEBA format); 1 in its text; also called sdAb C57; not shown: SASA fusion partner of the pFASEBA vector (sdAb-SASA protein in the expression medium)
B2: 抗CD3单域抗体 C58 (VHH)
VHH: QVQLQESGGGLVQPGGSLRLSCAASGFTLDYYAIGWFRQAPGKEREGVSCISSGDGTTYYADSVKGRFTISRDNAKNTVYLQMNSLKPEDTAVYYCAAARTRKVISIATMTLDPKVFASWGQGTQVTVSS
notes: Llama sdAb from a phage library; Tested as unpurified sdAb-SASA protein in E. coli expression medium / culture supernatant (FASEBA format); 3 in its text; also called sdAb C58; not shown: SASA fusion partner of the pFASEBA vector (sdAb-SASA protein in the expression medium)

Legend:
CD3 on Jurkat cells [1] = target: CD3 on Jurkat cells (UniProt P07766); assay: flow cytometry, culture supernatant on Jurkat cells (negative control)
CD3 on Jurkat cells [2] = target: CD3 on Jurkat cells (UniProt P07766); assay: flow cytometry, culture supernatant on Jurkat cells
CD3-His蛋白(MP-5) = target: T1, CD3-His蛋白(MP-5) (UniProt P07766 23-126); assay: BLI (Octet RED96), sdAb-SASA from expression medium captured on BSA-coated biosensor, 100 nM CD3 in solution, 1:1 Langmuir fit, 30°C
T1 construct: Immunogen and panning antigen; The Octet method speaks only of 'CD3蛋白' in solution at 100 nM; also called CD3蛋白; not shown: His tag
T1 sequence (P07766 23-126): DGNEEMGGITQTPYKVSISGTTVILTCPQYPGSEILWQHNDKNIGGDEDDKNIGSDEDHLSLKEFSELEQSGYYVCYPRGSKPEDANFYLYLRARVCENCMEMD

Molecule	MFI (CD3 on Jurkat cells [1])	MFI (CD3 on Jurkat cells [2])	koff (CD3-His蛋白(MP-5))
NC-sdAb(相同形式的非相关性sdAb) (VHH)	115 MFI		
B1		213 MFI	4.6e-05 s⁻¹
B2		245 MFI	3.91e-05 s⁻¹
